Experimental data taken from patent US20250388669A1 (published 2025).

T1: B7H3 (human, UniProt Q5ZPR3 29-466, limits assumed)
T1 construct: Tumor associated antigen; also called huB7H3
T1 sequence (looked up): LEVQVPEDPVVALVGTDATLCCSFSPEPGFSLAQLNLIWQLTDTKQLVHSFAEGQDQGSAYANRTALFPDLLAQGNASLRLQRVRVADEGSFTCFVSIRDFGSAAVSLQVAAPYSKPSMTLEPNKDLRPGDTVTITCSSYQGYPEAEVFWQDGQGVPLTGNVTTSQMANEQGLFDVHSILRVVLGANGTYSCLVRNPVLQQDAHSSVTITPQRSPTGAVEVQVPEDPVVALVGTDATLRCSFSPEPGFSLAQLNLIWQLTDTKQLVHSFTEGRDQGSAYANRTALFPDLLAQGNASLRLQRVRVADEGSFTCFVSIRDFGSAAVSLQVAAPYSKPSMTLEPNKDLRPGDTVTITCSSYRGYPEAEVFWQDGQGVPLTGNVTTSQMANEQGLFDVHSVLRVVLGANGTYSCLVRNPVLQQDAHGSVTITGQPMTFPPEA

B1: Ly2278 (bispecific antibody)
chain 1: QVQLQQSGAELVRPGSSVKISCKASGYAFSSYWMNWVKQRPGQGLEWIGQIWPGDGDTNYNGKFKGKATLTADESSSTAYMQLSSLASEDSAVYFCARRETTTVGRYYYAMDYWGQGTTVTVSSASTKGPSVFPLAPSSKSTSGGTAALGCLVKDYFPEPVTVSWNSGALTSGVHTFPAVLQSSGLYSLSSVVTVPSSSLGTQTYICNVNHKPSNTKVDKKVEPKSCGGGGSGGGGSGGGGSGGGGSEVQLVESGGGLVQPGGSLRLSCAASGFTFSTYAMNWVRQAPGKGLEWVGRIRSKYNNYATYYADSVKGRFTISRDDSKNSLYLQMNSLKTEDTAVYYCVRHGNFGNSYVSWFAYWGQGTLVTVSSGGGGSDKTHTCPPCPAPEAAGPSVFLFPPKPKDTLMISRTPEVTCVVVDVSHEDPEVKFNWYVDGVEVHNAKTKPREEQYNSTYRVVSVLTVLHQDWLNGKEYKCKVSNKALPAPIEKTISKAKGQPREPQVYTLPPSREEMTKNQVSLWCLVKGFYPSDIAVEWESNGQPENNYKTTPPVLDSDGSFFLYSKLTVDKSRWQQGNVFSCSVMHEALHNHYTQKSLSLSPG
chain 2: QVQLQQSGAELVRPGSSVKISCKASGYAFSSYWMNWVKQRPGQGLEWIGQIWPGDGDTNYNGKFKGKATLTADESSSTAYMQLSSLASEDSAVYFCARRETTTVGRYYYAMDYWGQGTTVTVSSASTKGPSVFPLAPSSKSTSGGTAALGCLVKDYFPEPVTVSWNSGALTSGVHTFPAVLQSSGLYSLSSVVTVPSSSLGTQTYICNVNHKPSNTKVDKKVEPKSCGGGGSGGGGSGGGGSGGGGSQAVVTQEPSLTVSPGGTVTLTCRSSTGAVTTSNYANWVQQKPGQAPRGLIGGTNKRAPWTPARFSGSLLGGKAALTITGAQAEDEADYYCALWYSNLWVFGGGTKLTVLGGGGSDKTHTCPPCPAPEAAGPSVFLFPPKPKDTLMISRTPEVTCVVVDVSHEDPEVKFNWYVDGVEVHNAKTKPREEQYNSTYRVVSVLTVLHQDWLNGKEYKCKVSNKALPAPIEKTISKAKGQPREPQVYTLPPSREEMTKNQVSLSCAVKGFYPSDIAVEWESNGQPENNYKTTPPVLDSDGSFFLVSKLTVDKSRWQQGNVFSCSVMHEALHNRFTQKSLSLSPG
light: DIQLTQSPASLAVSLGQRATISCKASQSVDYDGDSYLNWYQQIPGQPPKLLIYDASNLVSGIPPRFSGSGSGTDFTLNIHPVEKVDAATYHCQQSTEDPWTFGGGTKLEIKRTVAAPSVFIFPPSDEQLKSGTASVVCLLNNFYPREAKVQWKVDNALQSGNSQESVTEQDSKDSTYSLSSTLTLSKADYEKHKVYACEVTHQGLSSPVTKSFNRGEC
notes: CD19 Fabs, central CD3 Fv
B2: Ly1965 (bispecific antibody)
chain 1: QVQLVQSGAEVKKPGASVKVSCKASGYTFTSYVMHWVRQKPGQGLEWIGYINPYNEGTESTDKFKGRATMTSDKSTSTVYMELSSLRSEDTAVYYCASIYYGYEGTYFGVWGQGTLVTVSSASTKGPSVFPLAPSSKSTSGGTAALGCLVKDYFPEPVTVSWNSGALTSGVHTFPAVLQSSGLYSLSSVVTVPSSSLGTQTYICNVNHKPSNTKVDKKVEPKSCGGGGSGGGGSGGGGSGGGGSEVQLVESGGGLVQPGGSLRLSCAASGFTFSTYAMNWVRQAPGKGLEWVGRIRSKYNNYATYYADSVKGRFTISRDDSKNSLYLQMNSLKTEDTAVYYCVRHGNFGNSYVSWFAYWGQGTLVTVSSGGGGSDKTHTCPPCPAPEAAGPSVFLFPPKPKDTLMISRTPEVTCVVVDVSHEDPEVKFNWYVDGVEVHNAKTKPREEQYNSTYRVVSVLTVLHQDWLNGKEYKCKVSNKALPAPIEKTISKAKGQPREPQVYTLPPSREEMTKNQVSLWCLVKGFYPSDIAVEWESNGQPENNYKTTPPVLDSDGSFFLYSKLTVDKSRWQQGNVFSCSVMHEALHNHYTQKSLSLSPG
chain 2: QVQLVQSGAEVKKPGASVKVSCKASGYTFTSYVMHWVRQKPGQGLEWIGYINPYNEGTESTDKFKGRATMTSDKSTSTVYMELSSLRSEDTAVYYCASIYYGYEGTYFGVWGQGTLVTVSSASTKGPSVFPLAPSSKSTSGGTAALGCLVKDYFPEPVTVSWNSGALTSGVHTFPAVLQSSGLYSLSSVVTVPSSSLGTQTYICNVNHKPSNTKVDKKVEPKSCGGGGSGGGGSGGGGSGGGGSQAVVTQEPSLTVSPGGTVTLTCRSSTGAVTTSNYANWVQQKPGQAPRGLIGGTNKRAPWTPARFSGSLLGGKAALTITGAQAEDEADYYCALWYSNLWVFGGGTKLTVLGGGGSDKTHTCPPCPAPEAAGPSVFLFPPKPKDTLMISRTPEVTCVVVDVSHEDPEVKFNWYVDGVEVHNAKTKPREEQYNSTYRVVSVLTVLHQDWLNGKEYKCKVSNKALPAPIEKTISKAKGQPREPQVYTLPPSREEMTKNQVSLSCAVKGFYPSDIAVEWESNGQPENNYKTTPPVLDSDGSFFLVSKLTVDKSRWQQGNVFSCSVMHEALHNRFTQKSLSLSPG
light: EIVLTQSPATLSLSPGERATLSCRASSSVSYMHWYQQKPGQAPRPWIYATSNLASGIPARFSGSRSGTDYTLTISSLEPEDFAVYYCQQWSSNTLTFGGGTKVEIKRTVAAPSVFIFPPSDEQLKSGTASVVCLLNNFYPREAKVQWKVDNALQSGNSQESVTEQDSKDSTYSLSSTLTLSKADYEKHKVYACEVTHQGLSSPVTKSFNRGEC
notes: B7H3 Fabs, central CD3 Fv
B3: Ly2434 (bispecific antibody, human IgG1, kappa)
chain 1: QVQLVQSGAEVKKPGASVKVSCKASGYTFTSYVMHWVRQKPGQGLEWIGYINPYNEGTESTDKFKGRATMTSDKSTSTVYMELSSLRSEDTAVYYCASIYYGYEGTYFGVWGQGTLVTVSSASTKGPSVFPLAPSSKSTSGGTAALGCLVKDYFPEPVTVSWNSGALTSGVHTFPAVLQSSGLYSLSSVVTVPSSSLGTQTYICNVNHKPSNTKVDKKVEPKSCDKTHTCPPCPAPEAAGPSVFLFPPKPKDTLMISRTPEVTCVVVDVSHEDPEVKFNWYVDGVEVHNAKTKPREEQYNSTYRVVSVLTVLHQDWLNGKEYKCKVSNKALPAPIEKTISKAKGQPREPQVYTLPPSREEMTKNQVSLWCLVKGFYPSDIAVEWESNGQPENNYKTTPPVLDSDGSFFLYSKLTVDKSRWQQGNVFSCSVMHEALHNHYTQKSLSLSPGGGGGSGGGGSGGGGSGGGGSEVQLVESGGGLVQPGGSLRLSCAASGFTFTNYGLHWVRQAPGKGLEWVSSISPSGGVTYYRDSVKGRFTISRDNSKNTLYLQMNSLRAEDTAVYYCAKPFLGWGGANWIAHWGQGTLVTVSS
chain 2: QVQLVQSGAEVKKPGASVKVSCKASGYTFTSYVMHWVRQKPGQGLEWIGYINPYNEGTESTDKFKGRATMTSDKSTSTVYMELSSLRSEDTAVYYCASIYYGYEGTYFGVWGQGTLVTVSSASTKGPSVFPLAPSSKSTSGGTAALGCLVKDYFPEPVTVSWNSGALTSGVHTFPAVLQSSGLYSLSSVVTVPSSSLGTQTYICNVNHKPSNTKVDKKVEPKSCDKTHTCPPCPAPEAAGPSVFLFPPKPKDTLMISRTPEVTCVVVDVSHEDPEVKFNWYVDGVEVHNAKTKPREEQYNSTYRVVSVLTVLHQDWLNGKEYKCKVSNKALPAPIEKTISKAKGQPREPQVYTLPPSREEMTKNQVSLSCAVKGFYPSDIAVEWESNGQPENNYKTTPPVLDSDGSFFLVSKLTVDKSRWQQGNVFSCSVMHEALHNRFTQKSLSLSPGGGGGSGGGGSGGGGSGGGGSDIQMTQSPSSLSASVGDRVTITCLASEDISNDLAWYQQKPGKAPKLLIYFVDRLLDGVPSRFSGSGSGTDFTLTISSLQPEDFATYYCQQSYKYPPTFGQGTKLEIK
light: EIVLTQSPATLSLSPGERATLSCRASSSVSYMHWYQQKPGQAPRPWIYATSNLASGIPARFSGSRSGTDYTLTISSLEPEDFAVYYCQQWSSNTLTFGGGTKVEIKRTVAAPSVFIFPPSDEQLKSGTASVVCLLNNFYPREAKVQWKVDNALQSGNSQESVTEQDSKDSTYSLSSTLTLSKADYEKHKVYACEVTHQGLSSPVTKSFNRGEC
notes: B7H3/CD40: two B7H3 Fabs, terminal CD40 Fv (TM559)
B4: Ly305 (antibody, V domains shown)
VH: EVQLVESGGGLVQPGGSLRLSCAASGFTFSTYAMNWVRQAPGKGLEWVGRIRSKYNNYATYYADSVKGRFTISRDDSKNSLYLQMNSLKTEDTAVYYCVRHGNFGNSYVSWFAYWGQGTLVTVSS
VL: QAVVTQEPSLTVSPGGTVTLTCRSSTGAVTTSNYANWVQQKPGQAPRGLIGGTNKRAPWTPARFSGSLLGGKAALTITGAQAEDEADYYCALWYSNLWVFGGGTKLTVL
notes: Parent mAb; also called Anti-CD3 Ly305; parent anti-CD3 mAb

Assays:
CD3 = CD3 (human); assay: CD3 binding, as described in Example 2 (ELISA or FCM)
B7H3 = biological target: T1, B7H3; assay: FCM or ELISA

CD3 (human), sequence (chain, as listed by the source): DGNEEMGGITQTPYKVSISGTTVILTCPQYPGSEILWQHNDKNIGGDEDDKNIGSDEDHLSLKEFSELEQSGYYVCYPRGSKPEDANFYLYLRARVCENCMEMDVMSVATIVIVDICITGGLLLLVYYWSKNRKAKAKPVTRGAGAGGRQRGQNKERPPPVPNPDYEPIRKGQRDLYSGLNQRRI

Row | Binder | EC50 (CD3) | binding result (B7H3)
1 | B1 | 1.46 µg/mL | –
2 | B2 | 0.419 µg/mL | –
3 | B3 | – | binds
4 | B4 | 0.03 µg/mL | –
